The record followed here is patent US20030096403A1.

The target of this experiment is surface antigen S of hepatitis B virus (Greencross Co.) (hepatitis B virus). The experiment is described as follows: competitive ELISA: antibody pre-incubated with soluble surface antigen S, then plate coated with surface antigen S.

B1: humanized antibody HzS-III (antibody, V domains shown)
VH: EVQLVQSGAEVKKPGASVKVSCKASGYTFTDYNVQWVRQAPGKSLEWMGYIYPYSGGTGYSQKFQGRVTLTVDNSASTAYMELSSLRSEDTAVYYCARNYGYDSSAYWGQGTLVTVSS
VL: DIVLTQSPASLAVSPGQRATITCRASESVSNYGINFINWFQQKPGQPPKLLIYTASNKGTGVPARFSGSGSGTDFTLTINPVEAEDTANYFCQQSKEVPYTFGGGTKVEIKR
In turn, B1 yielded a Ka of 4e+09 M⁻¹.
